The record followed here is patent publication US20250186541A1, “DLL3 TARGETING PEPTIDES AND CONSTRUCTS THEREOF” (MARIANA ONCOLOGY INC., priority 2023, published 2025).

For one assay, the target named is T1, human DLL3 (Homo sapiens, UniProt Q9NYJ7).
T1 construct: biotin (biotinylated)
T1 sequence (Q9NYJ7 27-618): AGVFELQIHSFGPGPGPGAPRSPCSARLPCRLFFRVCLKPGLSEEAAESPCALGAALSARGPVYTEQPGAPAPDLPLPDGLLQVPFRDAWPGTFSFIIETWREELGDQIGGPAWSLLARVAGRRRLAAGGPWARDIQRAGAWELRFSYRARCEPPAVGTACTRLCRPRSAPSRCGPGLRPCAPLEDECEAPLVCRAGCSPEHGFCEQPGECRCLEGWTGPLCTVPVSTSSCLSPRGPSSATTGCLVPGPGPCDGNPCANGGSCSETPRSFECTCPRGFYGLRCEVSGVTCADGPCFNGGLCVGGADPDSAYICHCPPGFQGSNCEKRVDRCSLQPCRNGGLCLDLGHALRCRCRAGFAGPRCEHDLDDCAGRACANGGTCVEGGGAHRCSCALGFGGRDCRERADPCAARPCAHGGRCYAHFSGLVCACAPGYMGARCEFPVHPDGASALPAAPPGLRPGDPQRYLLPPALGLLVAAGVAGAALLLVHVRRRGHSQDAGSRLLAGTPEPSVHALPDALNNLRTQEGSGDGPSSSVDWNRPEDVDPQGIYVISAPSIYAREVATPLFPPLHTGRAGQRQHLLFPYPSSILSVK
Description: Affinity determination by Surface Plasmon Resonance (SPR), Biacore, 1:1 binding model. The conditions noted are these: biotinylated human DLL3 on streptavidin chip, 25° C.; NB = nonbinding. Put shortly:
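SPR with biotinylated human DLL3 captured on a streptavidin chip, with a reference surface subtracted. Samples were injected at several concentrations at 100 μL/min in phosphate buffer with 137 mM NaCl, 2.7 mM KCl, 0.05% P20 and 2% DMSO. Kinetic and affinity constants came from a 1:1 binding fit.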
A general note: Surface plasmon resonance follows binding to a sensor surface in real time, without labels.

Assay [1] has as its system SHP-77 cells. Description: Cell binding (total uptake) of [177Lu]Lu-labeled peptide, gamma counter bound fraction. In kind it is cell-based, human. The conditions noted are these: [177Lu]Lu-test peptide, 1 h, 37° C., 1% PBSA. As for the experimental part: (§1) Example 4. Cell Binding, Internalization, and Radiolabeling of Targeting Moieties Polypeptides General Procedure for Radiolabeling of RPTs with [^177Lu]LuCl3
(§2) [^177Lu]LuCl3 was received from venders in HCl solution. For every mCi of [^177Lu]LUCl3 added to the reaction vial (1.5 mL Eppendorf vial), ammonium acetate buffer (0.2 M, pH 4.9, 100 μL, containing 1% w/v ascorbic acid and 6% v/v ethanol) and peptide conjugate (1 nmol) was added. The pH of the solution was determined to be approximately 5 by using pH strips. The reaction vial was incubated at 80° C., 700 RPM for 17-20 minutes. A sample from the reaction was analyzed by RP-HPLC using an Agilent Infinity II 1260 HPLC to determine reaction completion and radiochemical purity. HPLC conditions: Waters XBridge BEH […] Column, 130 Å, 3.5 um, 4.6 mm×250 mm; mobile phase: Solvent A=water (with 0.1% formic acid), solvent B=acetonitrile (with 0.1% formic acid). Gradients: 25-45% B in 10 minutes, 45-65% B in 12 minutes, 65-90% in 6 minutes at a flow rate of 0.5 mL/min. Required amounts of the product was formulated in 1% PBSA for cell studies.
(§3) The study was conducted using SHP-77cells (Table 7) Adherent cell studies: The cells were cultured in appropriate culture media (20 mL) in tissue culture treated T150 flasks at 37° C. and 5% CO2. Adherent cells were detached (60-70% confluent) using 5 mL Versene at 37° C. for 3 min. After confirming the viability using countess and count of detached cells using Trypan blue, the cells were centrifuged at 4° C. for 5 minutes (1,000 rpm). The cell pellet obtained was washed once with PBS and resuspended in 1% PBSA to obtain the desired cell concentration (5-25 million cells/mL).
(§4) Suspension cell studies: The cells were cultured in appropriate culture media (20 mL) in tissue culture treated T150 flasks at 37° C. and 5% CO2. After confirming the viability and count of detached cells using Trypan blue, the cells were centrifuged at 4° C. for 5 minutes (1,000 rpm). The cell pellet obtained was washed once with PBS and resuspended in 1% PBSA to obtain the desired cell concentration (5-25 million cells/mL).
(§5) Cell numbers used for the assay were in the range of 5 million cells/condition −25 million cells/condition.
Total uptake: Cells were incubated with 300 μL (0.8 μCi) of the incubation buffer (containing radiolabeled peptide [^177Lu]Lu-test peptide) for 1 hour at 37 C (Table 8). Post incubation, the cells were pelleted and washed 2 times using cold PBS+1% BSA. The supernatant and washes were combined and counted together as “unbound fraction” in a gamma counter. The cells were then resuspended in 300 μL of 1% PBS+1% BSA and counted in the gamma counter as “bound fraction”.
(§6) SHP-77 cells are human-derived, non-engineered SCLC cells.

Assay [2] relates to SHP-77 cells. Briefly: Internalization of [177Lu]Lu-labeled peptide after glycine acid wash, gamma counter internalized fraction. In kind it is cell-based, human. Conditions: [177Lu]Lu-test peptide, 1 h, 37° C., acid wash 50 mM Glycine pH 2.5. As for the experimental part: as §1, §2, §3, §4, §5
Internalization: The resuspended cells in 300 μl of 1% PBSA and counted in the gamma counter as “bound fraction” were collected in 1.5 ml Eppendorf tube and pelleted. The pelleted cells were incubated with 300 μl of 50 mM Glycine pH=2.5 for 3 minutes and then pelleted discarding the supernatant. This process was repeated one more time. The pelleted cells were washed with 300 μl of cold 1% PBSA and then resuspended in 300 μl 0.3M NaOH. This was counted in the gamma counter as “internalized fraction”.
as §6

Another assay concerns the target T2, Biotinylated human DLL3 (human, UniProt Q9NYJ7 27-492, biotinylated (site not stated)).
T2 construct: also called Delta-like ligand 3; Delta Like Canonical Notch Ligand 3
T2 sequence (looked up): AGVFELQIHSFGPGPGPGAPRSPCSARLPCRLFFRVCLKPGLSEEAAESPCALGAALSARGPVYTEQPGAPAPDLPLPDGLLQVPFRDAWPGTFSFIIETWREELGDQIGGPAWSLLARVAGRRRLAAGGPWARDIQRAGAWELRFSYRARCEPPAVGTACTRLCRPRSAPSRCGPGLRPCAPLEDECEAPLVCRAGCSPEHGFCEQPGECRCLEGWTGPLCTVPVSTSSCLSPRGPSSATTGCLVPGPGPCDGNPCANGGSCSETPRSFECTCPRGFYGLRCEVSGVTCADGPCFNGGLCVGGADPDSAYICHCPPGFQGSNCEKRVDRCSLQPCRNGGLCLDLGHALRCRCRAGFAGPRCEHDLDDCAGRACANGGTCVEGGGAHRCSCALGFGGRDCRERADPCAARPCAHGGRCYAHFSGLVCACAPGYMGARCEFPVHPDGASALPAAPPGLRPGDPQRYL
Briefly: SPR, biotin-hDLL3 on SA chip.

Numbered stars: 1 amine (or outer) side, 2 acyl side, 3 side chain; on linkers, the order of the positions; unused ones are H or OH. Bridge positions count the residues as written; N and C are the ends. Square brackets hold non-standard residues; d marks the D form. Peptide text beside a SMILES is read from it. * marks the point of attachment. Ala(piperidin-4-yl) = O=C([C@H](CC1CCN([*:3])CC1)N[*:1])[*:2]; DOTA = O=C(O)CN1CCN(CC(=O)O)CCN(CC(=O)*)CCN(CC(=O)O)CC1; Phe(4-CH2NH2) = NCc1ccc(C[C@H](N)C(=O)O)cc1; 1Nal = N[C@@H](Cc1cccc2ccccc12)C(=O)O; 2Nal = N[C@@H](Cc1ccc2ccccc2c1)C(=O)O; tBuAla = CC(C)(C)C[C@H](N)C(=O)O; 3Pal = N[C@@H](Cc1cccnc1)C(=O)O; 4Pal = N[C@@H](Cc1ccncc1)C(=O)O; NMeQ = CN[C@@H](CCC(N)=O)C(=O)O; Chg = N[C@H](C(=O)O)C1CCCCC1; αMeP = C[C@@]1(C(=O)O)CCCN1; dNle = CCCC[C@@H](N)C(=O)O; Ahx = NCCCCCC(=O)O

`CC(=O)N[C@H](C)C(=O)N[C@@H](CO)C(=O)N[C@@H](CC(=O)O)C(=O)N[C@H]1CSSC[C@@H](C(=O)N2CCC[C@@]2(C)C(=O)N[C@@H](Cc2ccccc2)C(=O)N[C@@H](CC(=O)O)C(N)=O)NC(=O)[C@H](CC(N)=O)NC(=O)[C@H](Cc2ccc3ccccc3c2)NC(=O)[C@H](Cc2ccc(CNC(=O)CN3CCN(CC(=O)O)CCN(CC(=O)O)CCN(CC(=O)O)CC3)cc2)NC(=O)[C@H](CC(C)(C)C)NC(=O)[C@H](Cc2cccc3ccccc23)NC1=O` [Cpd #158, Ac-(D-Ala)-S-D-C(3)-(1Nal)-(t-Bu-Ala)-[PAF(DOTA)]-(2Nal)-N-C(3)-(aMe-P)-F -D-CONH2] (Ac-[dA]SDC[1Nal][tBuAla][Phe(4-CH2NH2)](DOTA)[2Nal]NC[αMeP]FD-NH2; disulfide 4-10): at human DLL3, binding was put at a Kd of 0.12 nM. Moreover, the “% Binding” value in the assay on SHP-77 cells [1] was found to be 25%. Further, the “% Internalization (out of bound fraction)” value in the assay with SHP-77 cells [2] is recorded as 63%. For the molecule Ac-SDCWLQWNCPFD-NH2 (disulfide 3-9) [Cpd #5], the binding result in the assay with Biotinylated human DLL3 was “no binding”.

B1: Cpd #113 (peptide)
peptide: Ac-[Chg]SDC[1Nal]L[4Pal]WNCPFD[dK](DOTA)-NH2
modifications: disulfide 4-10
SMILES: CC(=O)N[C@H](C(=O)N[C@@H](CO)C(=O)N[C@@H](CC(=O)O)C(=O)N[C@H]1CSSC[C@@H](C(=O)N2CCC[C@H]2C(=O)N[C@@H](Cc2ccccc2)C(=O)N[C@@H](CC(=O)O)C(=O)N[C@H](CCCCNC(=O)CN2CCN(CC(=O)O)CCN(CC(=O)O)CCN(CC(=O)O)CC2)C(N)=O)NC(=O)[C@H](CC(N)=O)NC(=O)[C@H](Cc2c[nH]c3ccccc23)NC(=O)[C@H](Cc2ccncc2)NC(=O)[C@H](CC(C)C)NC(=O)[C@H](Cc2cccc3ccccc23)NC1=O)C1CCCCC1
With B1, the Kd (in general, the constant that tells how readily two partners part at equilibrium) with Biotinylated human DLL3 stood at 0.89 nM.

B2: Cpd #99 (peptide)
peptide: Ac-[Chg]SDCWLQK(DOTA)NCPFD-NH2
modifications: disulfide 4-10
SMILES: CC(=O)N[C@H](C(=O)N[C@@H](CO)C(=O)N[C@@H](CC(=O)O)C(=O)N[C@H]1CSSC[C@@H](C(=O)N2CCC[C@H]2C(=O)N[C@@H](Cc2ccccc2)C(=O)N[C@@H](CC(=O)O)C(N)=O)NC(=O)[C@H](CC(N)=O)NC(=O)[C@H](CCCCNC(=O)CN2CCN(CC(=O)O)CCN(CC(=O)O)CCN(CC(=O)O)CC2)NC(=O)[C@H](CCC(N)=O)NC(=O)[C@H](CC(C)C)NC(=O)[C@H](Cc2c[nH]c3ccccc23)NC1=O)C1CCCCC1
On to B2, for which the binding result with Biotinylated human DLL3 is recorded as “no binding”.

As for {DOTA-Ahx}-SDCWL[NMeQ]WNCPFD-NH2 (disulfide 3-9) [Cpd #93], in the assay with Biotinylated human DLL3, the binding result is reported as “no binding”. The molecule Ac-[Chg][dS]DC[1Nal]LQWNCPFD[dK](DOTA)-NH2 (disulfide 4-10) [Cpd #106] returned a Kd with Biotinylated human DLL3 of 1.2 nM.

For the molecule Ac-[Chg]SDC[1Nal]LQWNCPFD[dK](DOTA)-NH2 (disulfide 4-10) [Cpd #105], in the assay with Biotinylated human DLL3, the affinity, expressed as Kd, was 0.59 nM. With Ac-[dNle][dS]DC[1Nal]LQWNCPFD[dK](DOTA)-NH2 (disulfide 4-10) [Cpd #107], the Kd with Biotinylated human DLL3 was 1.9 nM. Same read-out and setting: in the case of Ac-[Chg]SDC[1Nal]L[Ala(piperidin-4-yl)]WNCPFD[dK](DOTA)-NH2 (disulfide 4-10) [Cpd #111] it was 1.24 nM; in that of Ac-[dA][dS]DC[1Nal]LQWNCPFD[dK](DOTA)-NH2 (disulfide 4-10) [Cpd #108], 2.89 nM.

B3: Cpd #97 (peptide)
peptide: Ac-[Chg]SDCK(DOTA)LQWNCPFD-NH2
modifications: disulfide 4-10
SMILES: CC(=O)N[C@H](C(=O)N[C@@H](CO)C(=O)N[C@@H](CC(=O)O)C(=O)N[C@H]1CSSC[C@@H](C(=O)N2CCC[C@H]2C(=O)N[C@@H](Cc2ccccc2)C(=O)N[C@@H](CC(=O)O)C(N)=O)NC(=O)[C@H](CC(N)=O)NC(=O)[C@H](Cc2c[nH]c3ccccc23)NC(=O)[C@H](CCC(N)=O)NC(=O)[C@H](CC(C)C)NC(=O)[C@H](CCCCNC(=O)CN2CCN(CC(=O)O)CCN(CC(=O)O)CCN(CC(=O)O)CC2)NC1=O)C1CCCCC1
B3: the binding result in the assay with Biotinylated human DLL3 is reported as “no binding”.

B4: Cpd #112 (peptide)
peptide: Ac-[Chg]SDC[1Nal]L[3Pal]WNCPFD[dK](DOTA)-NH2
modifications: disulfide 4-10
SMILES: CC(=O)N[C@H](C(=O)N[C@@H](CO)C(=O)N[C@@H](CC(=O)O)C(=O)N[C@H]1CSSC[C@@H](C(=O)N2CCC[C@H]2C(=O)N[C@@H](Cc2ccccc2)C(=O)N[C@@H](CC(=O)O)C(=O)N[C@H](CCCCNC(=O)CN2CCN(CC(=O)O)CCN(CC(=O)O)CCN(CC(=O)O)CC2)C(N)=O)NC(=O)[C@H](CC(N)=O)NC(=O)[C@H](Cc2c[nH]c3ccccc23)NC(=O)[C@H](Cc2cccnc2)NC(=O)[C@H](CC(C)C)NC(=O)[C@H](Cc2cccc3ccccc23)NC1=O)C1CCCCC1
In the assay with Biotinylated human DLL3, B4 yielded a Kd of 2.56 nM.
